Experimental data: article PMC12408340 (Nature, 2025)

T1: CCoV-HuPn-2018 S domain B (receptor-binding domain, RBD), residues 523-671 (CCoV-HuPn-2018 (canine coronavirus))
T1 chain: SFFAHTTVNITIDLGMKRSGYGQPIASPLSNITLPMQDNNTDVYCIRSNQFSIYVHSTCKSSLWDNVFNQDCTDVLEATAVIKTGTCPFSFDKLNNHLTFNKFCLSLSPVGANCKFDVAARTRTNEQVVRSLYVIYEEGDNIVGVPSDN

B1: Felis catus APN ectodomain fused to a human Fc fragment (FcAPN-Fc) (Fc fusion)
chain: DQSKPWNVYRLPKTLIPDSYNVTLRPYLTPNNKGLYVFTGTNIVRFTCKESTNIVIIHSKRLNYTSHQGHMVALSGVGGFHPQPVIVRTELVELTEYLVVHLQEPLVAGRQYEMNSEFQGELADDLAGFYRSEYMENGVKKVLATTHMQATEARKSFPCFDEPAMKATFNITIIHPNNLVALSNMLPRGPSVPFGEDPTWKVTEFETTPIMSTYLLAYIVSEFSYVETRAPSGVLIRIWARPSAINQGHGDYALKVTGPILDFFSQHYDTPYPLNKSDQIALPDFNAGAMENWGLVTYRESALLYDRQSSSSGNQERVVTVIAHELAHQWFGNLVTLEWWNDLWLNEGFASYVEYLGADFAEPTWNLKDLMVLNDVYRVMAVDALASSHPLSTPASEINTPAQISEVFDSISYSKGASVLRMLSNFLTEDLFKMGIASYLHTYKYGNTIYLNLWEHLQQVVDKQPTIKLPDTVSAIMDRWILQMGFPVITVDTQTGTISQQHFLLDPQSVVTRPSQFNYLWIVPISSVRSGSPQAHYWLPGVEKAQNDLFKTTANDWVLLNLNVTGYYLVNYDNENWKKIQTQLQTDLSVIPVINRAQVIHDAFNLASAQKVPVTLALNNTLFLIQETEYMPWQAALSSLSYFKLMFDRSEVYGPMKRYLKKQVTPLFNHFERVTKNWTDHPQTLMDQYSEINAVSTACSYGVPECEKLAATLFAQWKKNPQNNPIHPNLRSTVYCNAIAQGGEEEWNFVWEQFLKAELVNEADKLRGALACSNQVWILNRFLSYTLDPNLIRKQDVTSTLSSISSNVVGQTLVWDFVQSNWKKLFQDYGTGSFSFSNLIQAVTRRFSTEFELQQLEQFKKNNMDTGFGSATRALEQALEKTKANLKWVKENKDVVLRWFTENS
B2: Felis catus APN ectodomain dimer without the Fc fusion (FcAPN) (domain or fragment)
chain: B1 chain
B3: Canis lupus familiaris APN ectodomain fused to a human Fc fragment (CfAPN-Fc) (Fc fusion)
chain: LAQSKPWNHYRLPKTLIPSSYNVTLRPYLTPNSNGLYTFKGSSTVRFTCKESTSMIIIHSKKLNYTNIQGQRVALRGVGGSQAPAIDRTELVEVTEYLVVHLREPLQVNSQYEMDSKFEGELADDLAGFYRSEYTENGVKKVLATTQMQAADARKSFPCFDEPAMKATFNITLIHPSNLVALSNMLPRGPSVPFTEEPNWNVTEFETTPIMSTYLLAYIVSEFKNVQENTPSNVLIRIWARPSAMDQGHGNYALRVTGPILDFFSRHYDTPYPLNKSDQIALPDFNAGAMENWGLVTYRESALLYDPQSSSIGNKERVVTVIAHELAHQWFGNLVTLEWWNDLWLNEGFASYVEYLGADYAEPTWNLKDLIVLNEVYRVMAVDALASSHPLSSPASEVNTPAQISEVFDSISYSKGASVLRMLSSFLTEDLFKKGVASYLHTFAYQNTIYLDLWNHLQWALGNQTAINLPYTVNAIMDRWILQMGFPVVTVDTTTGTLSQKHFLLDPQSNVTRPSKFNYLWIIPISSVKSGTQQAHYWMPDNAKVQNDLFKTTGDEWVLLNLNVTGYYLVNYDQNNWKKIHTQLQTDLSVIPVINRAQVIHDTFDLASAQIVPVTLALNSTLFLNQETEYMPWEAALSSLSYFKLMFDRSEVYGPMKNYLRKQVTPLFNHFEKITQNWTDHPQTLTEQYNEINAVSTACTYGVPKCKDLVSTLFAEWRKNPQNNPIYPNLRSTVYCNAIAQGGEEEWNFVWEQFRNTSLVNEADKLRSALACSTQVWILNRYLSYTLNPEFIRKQDVISTLSSIASNVIGQSLAWDFIQSNWKKLFEDYGTGSFSFSNLIQAVTRRFSTEFELQQLEQFKANNMDTGFGSGTRALEQALEKTKANIKWVKENKEAVLQWFRENSQ

How the values were obtained:
[1] = molecular target: FCoV-23 S domain B (receptor-binding domain, RBD), residues 529-677 (FCoV-23 (feline coronavirus)); test: BLI; […]; global 1:1 fit; […]
[2] = molecular target: T1, CCoV-HuPn-2018 S domain B …; test: BLI
cryo-EM structure = molecular target: the molecule itself; test: cryo-EM structure

| Molecule | Kd [1] | Kd [2] | other results |
| --- | --- | --- | --- |
| Felis catus APN ectodomain fused to a human Fc fragment (FcAPN-Fc) (from UniProt P79171 64-967) (Fc fusion) | 11 nM | – | – |
| Canis lupus familiaris APN ectodomain fused to a human Fc fragment (CfAPN-Fc) (from UniProt P79143 71-975) (Fc fusion) | 1.3 nM | – | – |
| B1 | – | 28 nM | – |
| B2 | – | – | stoichiometry N (cryo-EM structure): 2 |
| B3 | – | 2.6 nM | – |
